System: peptide library, one residue held at a place counted from the S/T acceptor
Experiment: relative phosphorylation of the sub-library (ratio to the mean residue at this position); higher = residue favoured
Conditions: human
Outline: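 In 384-well plates, purified recombinant kinases (human or orthologue constructs) were incubated for 90 min under kinase-specific conditions with 50 μM biotinylated degenerate peptide sub-libraries and 50 μM ATP spiked with γ-32P-ATP. Each sub-library fixed a single residue at one position around a central Ser/Thr. Relative sub-library phosphorylation, measured by phosphorimaging and densitometry of streptavidin membrane spots, is given as a ratio to the mean residue at that position.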

Chain of DCLK1, construct: aa351-689 (O15075 351-689, looked up): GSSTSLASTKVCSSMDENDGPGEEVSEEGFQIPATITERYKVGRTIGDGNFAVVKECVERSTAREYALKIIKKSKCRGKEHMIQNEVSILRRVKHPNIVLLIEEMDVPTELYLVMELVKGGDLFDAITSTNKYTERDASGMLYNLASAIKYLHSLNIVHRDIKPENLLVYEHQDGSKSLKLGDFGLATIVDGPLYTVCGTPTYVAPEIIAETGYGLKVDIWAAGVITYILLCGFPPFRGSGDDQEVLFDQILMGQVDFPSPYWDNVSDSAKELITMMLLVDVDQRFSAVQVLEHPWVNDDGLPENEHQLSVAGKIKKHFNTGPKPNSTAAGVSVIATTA

DCLK1, construct: aa351-689 (from UniProt O15075)
relative phosphorylation
Conditions	at +1	at +2	at +3	at +4	at -1	at -2	at -3	at -4	at -5
A fixed	0.741	1.04	0.876	0.928	0.957	1.35	0.773	1.13	1.09
D fixed	0.495	0.579	0.771	0.814	0.62	0.651	0.307	0.553	0.468
E fixed	0.508	0.36	0.817	0.761	0.362	1.5	0.386	0.912	0.452
F fixed	2.44	1.04	0.991	1.34	0.427	0.582	0.281	0.617	1.08
G fixed	0.765	0.962	1.25	1.11	1.72	1.45	0.704	1.09	1.07
H fixed	1.01	1.39	1.38	0.944	1.33	1.12	0.979	1.15	1.01
I fixed	0.485	1.08	0.571	0.972	0.277	0.315	0.133	0.462	0.759
K fixed	1.1	0.523	1.27	1.23	2.27	1.5	3.37	2.12	1.56
L fixed	0.774	1.3	0.952	1.03	0.745	0.499	0.245	0.659	1.02
M fixed	1.53	1.48	0.66	1.26	0.797	1.06	0.415	0.947	0.938
N fixed	1.11	0.719	0.988	0.871	1.07	1.12	0.568	0.909	0.716
P fixed	0.274	0.63	0.789	1.17	1.37	0.383	0.821	1.08	1.16
Q fixed	1.13	0.626	1.16	0.925	0.958	1.75	0.771	1.04	0.907
R fixed	1.22	0.52	1.46	1.05	2.01	1.78	6.04	1.92	1.68
V fixed	0.705	1.23	0.79	0.889	0.529	0.464	0.244	0.665	0.886
W fixed	1.34	1.59	1.32	0.929	0.528	0.685	0.475	0.876	1.36
Y fixed	1.38	1.94	0.953	0.781	1.03	0.785	0.486	0.861	0.832
pThr fixed	0.78	0.776	0.779	1.2	0.322	0.357	0.407	0.688	0.712
pTyr fixed	1.01	2.9	0.913	0.688	0.585	0.497	0.391	0.683	0.813

RAF1, construct: aa306-648 (from UniProt P04049)
relative phosphorylation
Conditions	at +1	at +2	at +3	at +4	at -1	at -2	at -3	at -4	at -5
A fixed	0.533	0.747	0.856	0.786	1.02	0.816	0.961	0.949	1.05
D fixed	0.619	0.926	0.751	0.848	1.47	0.702	0.845	1.36	1.19
E fixed	0.992	0.886	0.697	0.864	0.969	0.718	0.898	1.24	1.29
F fixed	1.25	0.618	1.36	1.23	0.587	1.25	0.8	0.698	0.914
G fixed	0.719	1.13	1.05	0.823	1.07	0.675	1.06	1.09	0.997
H fixed	0.672	1.08	1.06	1.13	1.52	1.29	1.08	1.13	1.18
I fixed	1.66	1.03	0.787	0.958	0.647	1.27	0.755	0.65	0.731
K fixed	0.544	1.15	0.73	0.985	1.14	0.9	1.36	1.11	1.35
L fixed	2.37	1	1.19	1.05	0.852	0.939	1.22	0.793	0.848
M fixed	1.78	0.846	0.963	0.966	1.09	1.02	1.07	0.835	0.788
N fixed	0.692	1.32	0.999	1.08	1.29	0.784	0.832	1.27	1.13
P fixed	0.281	1.23	0.912	0.983	0.735	1.1	0.797	0.772	1.03
Q fixed	0.762	1.22	0.892	1.06	0.93	0.846	0.996	0.878	0.86
R fixed	0.667	1.49	0.776	0.944	1.39	1.37	1.83	0.911	1.09
V fixed	0.938	1.12	0.81	0.793	0.59	1.14	0.661	0.616	0.681
W fixed	1.44	0.58	1.61	1.3	0.805	0.932	0.94	1.91	1.02
Y fixed	1.08	0.631	1.56	1.19	0.891	1.26	0.89	0.791	0.855
pThr fixed	1.05	1.62	0.758	0.819	0.77	1.06	1.1	1.24	0.992
pTyr fixed	0.626	0.898	0.911	0.692	1.61	1.72	1.07	0.994	0.98

— the supplement of paper PMC9876800
